For test [1], the target named is T1, 5-Helix-His6x (HIV-1).
T1 construct: also called His6-tagged 5-helix; 5-Helix bundle
Nature of the test: Ni-NTA co-purification from E. coli lysate, densitometry of the protein bands.

Test [2] addresses T1, 5-Helix-His6x. Briefly: circular dichroism of a 1:1 mixture, wavelength scan and thermal melt. (Circular dichroism is widely used to follow secondary structure.)
The target in test [3] is T2, AviTag-5-helix-His6x, biotinylated (HIV-1, biotin conjugated to the AviTag with BirA).
T2 construct: also called Biotinylated 5-helix; AviTagged 5-helix; not shown: N-terminal AviTag and any linker
Nature of the test: ELISA, biotinylated 5-helix on streptavidin plates, 50 nM GLUE-Cpep pre-incubated in human serum, anti-FLAG detection.

For test [4], the target named is T1, 5-Helix-His6x. Nature of the test: ELISA on E. coli lysate, His6-tagged 5-helix captured on Ni-NTA plates, anti-FLAG detection. For orientation: An ELISA detects its analyte on a solid surface through an enzyme-linked reagent.

These results are taken from patent publication US20160152676A1 (COLORADO STATE UNIVERSITY RESEARCH FOUNDATION, published 2016).

B1: GLUE-Cpep (untagged) (designed binder)
chain: MEYWHYVETTSSGQPLLREGEKDIAIDQSVGLYHGKSKILQRQRGRIFLTSQRIIYIDDAKPTQNSLGLELDDLAYVNYSSGFLTRSPALILFFKDPSSSTEFVQLSFRKSDGVWFSWATEIALYTILIHSLIEESQNQQEKNEQELL
notes: Co-expressed with 5-Helix-His6x in E. coli; also called untagged GLUE-Cpep
As for B1, the “ratio of proteins in the complex (stoichiometry)” value with 5-Helix-His6x [1] is 1 ratio (1:1).

B2: His6x-GLUE-Cpep (designed binder)
chain: MGSSHHHHHHSQDPGLNDIFEAQKIEWHEGGSGGSGGTEYWHYVETTSSGQPLLREGEKDIAIDQSVGLYHGKSKILQRQRGRIFLTSQRIIYIDDAKPTQNSLGLELDDLAYVNYSSGFLTRSPALILFFKDPSSSTEFVQLSFRKSDGVWFSWATEIALYTILIHSLIEESQNQQEKNEQELL
notes: Purified construct used in CD; also called helix-grafted GLUE
For the molecule B2, the binding result in the test with 5-Helix-His6x [2] is “binds”.

B3: FLAG-GLUE-Cpep (pET-28a construct, His6x-FLAG-GLUE-Cpep) (designed binder)
chain: MGSSHHHHHHSSGLVPRGSHMDYKDDDDKGGSEYWHYVETTSSGQPLLREGEKDIAIDQSVGLYHGKSKILQRQRGRIFLTSQRIIYIDDAKPTQNSLGLELDDLAYVNYSSGFLTRSPALILFFKDPSSSTEFVQLSFRKSDGVWFSWATEIALYTILIHSLIEESQNQQEKNEQELL
notes: Purified, pre-incubated with human serum, then tested in ELISA on biotinylated 5-helix
Consider B3, for which, in test [3], the binding result is given as “binds”.

B4: FLAG-CHR (peptide)
peptide: MDYKDDDDKGGSWMEWDREINNYTSLIHSLIEESQNQQEKNEQELL
notes: Co-expressed with 5-Helix-His6x in E. coli; also called C-peptide; native C-peptide
As to B4, in the test with 5-Helix-His6x [4], the binding result is “binds”.

B5: FLAG-GLUE-Cpep (designed binder)
chain: MDYKDDDDKGGSEYWHYVETTSSGQPLLREGEKDIAIDQSVGLYHGKSKILQRQRGRIFLTSQRIIYIDDAKPTQNSLGLELDDLAYVNYSSGFLTRSPALILFFKDPSSSTEFVQLSFRKSDGVWFSWATEIALYTILIHSLIEESQNQQEKNEQELL
notes: Co-expressed with 5-Helix-His6x in E. coli; lysate ELISA; also called grafted GLUE; helix-grafted GLUE
As for B5, the binding result with 5-Helix-His6x [4] is listed as “binds”.

B6: FLAG-GLUE (other)
chain: MDYKDDDDKGGSEYWHYVETTSSGQPLLREGEKDIFIDQSVGLYHGKSKILQRQRGRIFLTSQRIIYIDDAKPTQNSLGLELDDLAYVNYSSGFLTRSPALILFFKDPSSSTEFVQLSFRKSDGVLFSQATERALENILT
notes: Co-expressed with 5-Helix-His6x in E. coli; lysate ELISA; also called wtGLUE; wt-GLUE
For the molecule B6, in the test with 5-Helix-His6x [4], the binding result is on record as “no binding”.
